Data set [1] can be described thus: Curcumin binding by fluorescence spectroscopy. Conditions: 15 μM protein, 1% v/v DMSO. The procedure: Drug Binding. Protein variants were bound to curcumin (CCM) in increasing CCM:protein ratios at 1:1 to 10:1. Protein was diluted to a final concentration of 15 μM before CCM solubilized in DMSO was added to the protein sample at a final 1% v/v DMSO. Samples were incubated on a thermomixer for 30 min at 300 rpm in the dark at 4° C. Samples were then removed and 300 μL of each sample was added to a 96-well solid black plate. Protein variants were excited at 420 nm and emission was read at 520 nm using a BioTek Synergy H1 microplate reader at RT. The baseline spectra of CCM, at 15-150 μM in 50 mM PB pH 4.0 containing 1% v/v DMSO, was subtracted from the fluorescence intensities of the protein-CCM at corresponding concentrations. Resulting normalized relative fluorescence intensities were analyzed using Specific binding kinetics in GraphPad Prism (GraphPad Software).
Curcumin Binding. CCM was bound to Q2LTF. […] Samples were loaded onto a 96-well black plate and excited at 420 nm and emission was read at 520 nm using a BioTek Synergy H1 microplate reader at room temperature (RT). Normalized relative fluorescence intensities were calculated and analyzed in Graphpad Prism (GraphPad Software). Binding affinity was calculated using the specific binding kinetics equation.

The nature of data set [2]: Linear regression model predictions. Particulars: from 181.7 nm fiber diameter. The procedure: A linear model was previously established correlating the increase in thermostability upon binding CCM, and the loss of ordered structure as measured by ATR-FTIR. Based on this model, a 14.5% loss of structure is predicted, which translates to an error of just 0.4% from a measured structure loss of 14.1%, within the root mean squared error (RMSE) of the model, which is calculated here to be 0.9%. […] While CCM-binding imposes a negative impact on the ordered structure of the coiled-coil, a loss of secondary structure measured by ATR-FTIR has been associated with a positive interaction of CCM in the hydrophobic pore, which helps stabilize the protein and increase thermostability. Thus, the fluorination of Q2LTF results in a strengthened interaction with CCM.
Binding of CCM causes fiber thickening of Q2LTF (FIG. 34d, 44), consistent with recent analysis of supramolecular coiled-coil fibers. Fiber-thickening by CCM has been established for collagen activity as well as coiled-coil fibers and is explained by increased solvation of polar groups and burying of the hydrophobic residues leading to increased surface activity. […] While this relationship was assessed for non-fluorinated CCM fibers, the predicted fiber diameter is […] based on a 181.7 nm Q2LTF fiber diameter translating to an error of […], just outside our model's root mean squared error (RMSE) of […] (FIG. 45). […]

For data set [3] the following is noted: Q, previous results; cited from earlier work.
For data set [4] the following is noted: previous studies, cited from earlier work.
The conditions of data set [5]: Q as previously described; cited from earlier work.
The conditions of data set [6]: 10 Hz, Q as reported previously; cited from earlier work.

Where “and” joins values, the source holds several entries; their conditions need not be identical. Equal entries are not always repeated. Where two headings read alike, the source gives them in different places. Square brackets hold non-standard residues; d marks the D form. Ends that are not written are not given here. LTF = trifluoroleucine

For “Q2LTF: protein-engineered fluorinated coiled-coil fiber, Q2 with trifluoroleucine, SEQ ID NO: 20 (MRGSHHHHHHGSIEGRVKE[LTF][LTF]F[LTF]KKTAEQM[LTF]EE[LTF]KETNKA[LTF]HDVRH[LTF][LTF]ENQSK[LTF]; ends and bridges not checked) [Protein Q2LTF]”, the Kd in data set [1] was 0.06 μM:μM [protein:CCM]. The “predicted CCM-thickened fiber diameter” value in data set [2] is 12.9 μm.
Turning to “Q: rationally designed pentameric coiled-coil derived from C, SEQ ID NO: 23 (MRGSHHHHHHGSIEGRVKEITFLKNTAPQMLRELQETNAALQDVRELLRQQSKL) [reference compound]”, in data set [3], the “α-helical secondary structure upon gelation” value is 52%. Also, the melting temperature was 55.3 °C in data set [4] (50 mM Na2HPO4 pH 4.0) and 46.4 °C in data set [4] (50 mM Na2HPO4 pH 10.0). Further, in data set [5], the UCST is ~16 °C and 16.2 °C. Besides, the “storage modulus G′” value in data set [6] was 50.4 Pa and 50 Pa.

The record behind these values is patent publication US20240115742A1, “FLUORINATED FIBERS FOR MULTIMODAL 1H AND 19F MRI, ULTRASOUND, FLUORESCENCE DETECTION AND CONFORMATIONAL AND TEMPERATURE DETECTION BY 19F MRS” (New York University, priority 2022, published 2024).
